Target: AMA1/E, refolded recombinant Plasmodium falciparum (3D7) AMA-1 ectodomain (amino acids 83-531) with N- and C-terminal histidine tags (Plasmodium falciparum 3D7) (UniProt P22621)
Experiment: ELISA on plate-coated refolding mixtures of r-AMA1/E (GSH/GSSG 1/0.1 mM and 1/0.25 mM), against r-AMA1/E diluted in phosphate buffer with EDTA alone

rat monoclonal antibody 4G2dc1
fold ELISA reactivity over the phosphate buffer control: 5 fold

From patent publication US20030138450A1
